Reference: publication PMC8495455, “Discovery of a transdermally deliverable pentapeptide for activating AdipoR1 to promote hair growth” (EMBO Molecular Medicine, 2021)
Values joined by “and” are separate entries in the source; they are usually repeats but may differ in a detail not shown here. Identical values can stand only once.

How the values were obtained:
[1] = test system: C57BL/6 (WT) mice; assay: Mouse hair cycle modulation, hair cycle score, WT mice; type: in vivo; details: topical
Text: (§1) First, we topically applied P5 and minoxidil as a positive control (Messenger & Rundegren, [2004]) on wildtype (WT) mouse. […] Overall, the hair cycle score was higher in the P5‐treated mice than vehicle‐treated mice (Fig 4B). […] Collectively, P5 induces anagen hair cycle in vivo.
(§2) For the hair cycle modulation experiment, Adipoq ^−/− (stock #008195; JAX) (Ma et al, [2002]), Adipor1 ^−/− (Yamauchi et al, [2007]; Okada‐Iwabu et al, [2013]), or C57BL/6 (KOATECH) female mice was used (Müller‐Röver et al, [2001]). They were housed (up to four animals per cage; 23 ± 2°C, 8:00–20:00, 12 h/12 h light/dark cycle). Mice were fed a standard chow diet and provided food and water ad libitum. Mice were randomly allocated and shaved dorsally at 7.5 weeks of age. Only mice in telogen were included for the further experiments (Müller‐Röver et al, [2001]). From 8 weeks of age, the shaved dorsal area was treated with vehicle control (ethanol and polyethylene glycol, 30% and 70% v/v), P5 (0.1 mM), or minoxidil (3%) every day. The mouse hair growth score (a value from 0 to 100 based on the skin pigmentation and hair shaft density) was monitored and documented at designated days with the experimenters being blind to the conditions, following a previous study (Chai et al, [2019]). A higher score corresponds to a transition from telogen to anagen. On day 35, we obtained dorsal cutaneous tissue for histological analysis: anagen induction scores (calculated using an assigned arbitrary score; telogen = 1, anagen I–VI = 2–7) (Müller‐Röver et al, [2001]).

[2] = test system: C57BL/6 (WT) mice; assay: Mouse hair cycle modulation, histology and anagen induction score, WT mice; type: in vivo
Text: as §1
(§3) Paraffin‐embedded mouse cutaneous back tissue was sectioned (4 μm thickness) and stained with hematoxylin and eosin. For IF staining, human ORS cells cultured in FiTC‐P5, sectioned paraffin‐embedded human HFs (7 μm thickness), and sectioned paraffin‐embedded mouse cutaneous dorsal tissue or human skin tissue (5 μm thickness) were incubated at 4°C overnight with the following primary antibodies diluted in the diluent reagent (Invitrogen): phospho‐AMPK (#2535, 1:100; Cell Signaling), Ki‐67 (#M7240, 1:200; Dako), versican (#ab177480, 1:200; Abcam), or AdipoR1 antibody (#ab126611, 1:200; Abcam). After three washes with PBS, the slides were incubated with the secondary Alexa Fluor 488‐labeled anti‐mouse or rabbit IgG antibody (#ab150077, #ab150113, 1:200; Invitrogen), or Alexa Fluor 594‐labeled anti‐rabbit IgG antibody (#a11012, 1:200; Invitrogen) at 25°C for 1 h. Nuclei were counterstained with 4′,6‐diamidino‐2‐phenylindole (DAPI; #D1306, 1:1,000; Invitrogen). Microscopic observations were performed with a Nikon Eclipse Ci‐L microscope (Nikon). IF intensity was observed and recorded with a Nikon Eclipse Ni‐E fluorescence microscope (Nikon).
as §2

[3] = test system: AMPK phosphorylation in ORS cells; assay: Western blot p-AMPK, ORS cells; type: cell-based, human; details: P5 0 - 50 μM, APN 2.5 μg/ml
Text: (§4) Following the confirmation of the molecular interaction between AdipoR1 and P5, we evaluated the activation of the intracellular signaling pathway by P5. We investigated whether APN treatment on ORS and DP cells could activate AMPK or ERK signaling pathways, which are previously known to be downstream effectors of AdipoR1 (Mao et al, [2006]; Deepa & Dong, [2009]; Shibata et al, [2012]). […] Next, for determination of whether both P5 and APN mediates the phosphorylation of AMPK through AdipoR1 in ORS and DP cells, the cells were transfected with AdipoR1 siRNA (Appendix Fig S1). […] Collectively, P5 activates AMPK signaling pathway through AdipoR1 in ORS and DP cells in vitro.
(§5) Human ORS and DP cells or skin tissue were lysed (RIPA lysis buffer; #20‐188; Merck Millipore). The obtained protein was then separated by 8% SDS–PAGE and transferred to a polyvinylidene fluoride membrane (Amersham). The protein transferred membranes were incubated overnight with the specific antibodies. […] Antibody‐antigen complexes detected by enhanced chemiluminescent substrate (Thermo Fisher) were captured and quantified by Amersham imager 680 systems (GE Healthcare).

[4] = test system: AMPK phosphorylation in DP cells; assay: Western blot p-AMPK, DP cells; type: cell-based, human; details: P5 0 - 50 μM, APN 2.5 μg/ml
Text: as §4, §5

[5] = test system: ERK phosphorylation in ORS cells; assay: Western blot p-ERK1/2, ORS cells; type: cell-based, human
Text: as §4, §5

[6] = test system: ERK phosphorylation in DP cells; assay: Western blot p-ERK1/2, DP cells; type: cell-based, human
Text: as §4, §5

[7] = test system: AMPK phosphorylation through AdipoR1 in ORS cells; assay: Western blot p-AMPK in AdipoR1 siRNA-transfected ORS cells; type: cell-based, human
Text: as §4
(§6) All transfections were performed using Lipofectamine 2000 following the manufacturer’s instructions (#11668019; Thermo Fisher). Human DP and ORS cells were cultured without antibiotics until reaching 50% confluency. AdipoR1 or scrambled siRNA (Bioneer) was used. The culture medium was changed 6 h after transfection, and the cells were incubated for another 24 h before subsequent analyses.
(§7) Human ORS and DP cells or skin tissue were lysed (RIPA lysis buffer; #20‐188; Merck Millipore). […] Antibody‐antigen complexes detected by enhanced chemiluminescent substrate (Thermo Fisher) were captured and quantified by Amersham imager 680 systems (GE Healthcare).

[8] = test system: AMPK phosphorylation through AdipoR1 in DP cells; assay: Western blot p-AMPK in AdipoR1 siRNA-transfected DP cells; type: cell-based, human
Text: as §4, §6, §7

[9] = test system: matrix cells of human HF bulbs; assay: IF staining Ki-67 of ex vivo cultured HF bulb; type: cell-based; details: APN 10μg/ml, ex vivo cultured HF bulb; individual HFs, n = 8
Text: We next investigated whether P5 can reproduce the effects of APN on hair growth promotion ex vivo (Won et al, [2012]) using ex vivo human HF organ culture model. […] The Ki‐67‐positive cell portion of the matrix area in the P5‐treated HFs was higher than that in the vehicle‐treated group (Fig 3E).
as §3

[10] = test system: human scalp HFs; details: ref Won et al, [2012]; cited from earlier work
Text: However, it is not well understood about the underlying action mechanism of APN on hair growth promotion and how to utilize this endogenous protein as clinically applicable drug forms (Otvos, [2019]).

Molecule	Gross morphology of dorsum ([1]; day 14)	Gross morphology of dorsum ([1]; day 35)	Histological examination of HFs ([2]; H&E)	Anagen induction scores vs vehicle ([2]; One-way ANOVA with Tukey's test)	Phosphorylation of AMPK, ORS cells [3]	Phosphorylation of AMPK, DP cells [4]	Phosphorylation of ERK, ORS cells [5]	Phosphorylation of ERK, DP cells [6]	p-AMPK intensity after AdipoR1 siRNA transfection, ORS cells [7]	p-AMPK intensity after AdipoR1 siRNA transfection, DP cells [8]	Numbers of Ki-67-positive cells normalized to DAPI-stained cells [9]	Hair growth ex vivo [10]
Nc1cc(N2CCCCC2)nc(N)[n+]1[O-] [minoxidil, reference compound]	obvious pigmentation and hair	manifested a black hair coat	anagen HFs were noticeable	significantly higher								
APN: adiponectin protein, positive control (protein, UniProt Q15848 19-244, looked up) Adiponectin: ETTTQGPGVLLPLPKGACTGWMAGIPGHPGHNGAPGRDGRDGTPGEKGEKGDPGLIGPKGDIGETGVPGAEGPRGFPGIQGRKGEPGEGAYVYRSAFSVGLETYVTIPNMPIRFTKIFYNQQNHYDGSTGKFHCNIPGLYYFAYHITVYMKDVKVSLFKKDKAMLFTYDQYQENNVDQASGSVLLHLEVGDQVWLQVYGEGERNGLYADNDNDSTFTGFLLYHDTN					phosphorylation of AMPK was observed	phosphorylation of AMPK was observed	no effect on the phosphorylation of ERK	no effect on the phosphorylation of ERK	intensity was reduced	intensity was reduced	0.29 and 0.31 and 0.23 and 0.25 and 0.22 and 0.21 and 0.35 and 0.28	promotes hair growth ex vivo effectively
